Measurements published in US20160237160A1 (Bayer, published 2016).

T1: HVEM (TNFRSF14) Fc fusion protein (Human, UniProt Q92956 39-202)
T1 construct: extracellular domain; bought
T1 sequence (looked up): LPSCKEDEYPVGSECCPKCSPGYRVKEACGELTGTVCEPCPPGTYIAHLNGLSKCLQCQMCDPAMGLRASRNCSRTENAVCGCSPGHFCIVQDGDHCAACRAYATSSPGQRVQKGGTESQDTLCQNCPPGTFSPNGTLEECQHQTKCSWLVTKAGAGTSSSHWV

T2: Apo-3 (TNFRSF25) Fc fusion protein (Human, UniProt Q93038 25-199)
T2 construct: extracellular domain; bought
T2 sequence (looked up): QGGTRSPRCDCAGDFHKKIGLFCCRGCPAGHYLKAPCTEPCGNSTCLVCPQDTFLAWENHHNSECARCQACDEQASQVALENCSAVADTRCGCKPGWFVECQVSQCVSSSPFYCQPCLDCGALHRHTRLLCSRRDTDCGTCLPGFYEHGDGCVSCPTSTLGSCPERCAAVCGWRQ

T3: CD-385 (TNFRSF21) Fc fusion protein (Human, UniProt O75509 42-349)
T3 construct: extracellular domain; bought
T3 sequence (looked up): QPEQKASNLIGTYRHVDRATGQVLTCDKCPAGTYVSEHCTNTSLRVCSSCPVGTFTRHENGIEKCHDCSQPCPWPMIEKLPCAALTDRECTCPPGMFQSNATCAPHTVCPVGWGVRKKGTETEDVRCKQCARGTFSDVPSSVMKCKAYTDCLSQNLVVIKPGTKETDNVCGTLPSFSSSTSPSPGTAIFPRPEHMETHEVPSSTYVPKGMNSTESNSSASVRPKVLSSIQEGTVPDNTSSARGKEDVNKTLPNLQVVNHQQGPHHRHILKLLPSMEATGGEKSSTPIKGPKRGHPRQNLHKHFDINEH


Legend:
[1] = molecular target: T1, HVEM (TNFRSF14) Fc fusion protein; experiment: ELISA, Fc fusion protein coated at 1 µg/ml, TPP-2090 at 75 nM, Amplex Red;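 also: binding reported as ELISA signal intensity in Rfu against a panel of TNF receptor superfamily members presented as Fc fusion proteins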
Source text: (§1) Shown is the result of an ELISA: Y is “ELISA signal intensity [Rfu]”; X are “TNF receptor superfamily proteins tested (Fc-fusion proteins)”: 1 is “TWEAKR”; 2 is “TWEAKR”; 3 is “Apo-3”; 4 is “Trail-R1”; 5 is “Trail-R2”; 6 is “CD385”; 7 is “CD95”; 8 is “Rank”; 9 is “TNF-R1”; 10 is “TNF-R2”; 11 is “BAFF-R”; 12 is “DcR3”; 13 is “BCMA”; 14 is “TACI”; 15 is “OX40”; 16 is “CD30”; 17 is “CD27”; 18 is “CD40”; 19 is “Osteoprotegerin”; 20 is “EDAR”; 21 is “GITR”; 22 is “HVEM”; 23 is “NGF R”; 24 is “Trail R3”; 25 is “Lymphotioxin B R”; 26 is “Trail R4”; 27 is “EDA2R”; 28 is “TROY”; 29 is “RELT”; 30 is “4-1BB”.
(§2) To collect dose-response data a serial 3fold dilution of biotinylated IgG starting with a concentration of 2 μM was used as soluble binding partner. Detection was done with anti-hIgG1-HRP and Amplex Red.

[2] = molecular target: T2, Apo-3 (TNFRSF25) Fc fusion protein; experiment: as above
Source text: as §1, §2

[3] = molecular target: T3, CD-385 (TNFRSF21) Fc fusion protein; experiment: as above
Source text: as §1, §2

[4] = molecular target: T4, TWEAKR (TNFRSF12A, FN14), human, on tumor cell lines (human, UniProt Q9NP84 28-129); experiment: FACS, HT29 cells, 10 ug/ml
T4 construct: endogenous receptor on human cancer cell lines; also called TWEAK receptor; CD266
Procedure: (§3) To determine the binding characteristics of the anti-TWEAKR antibodies on mouse and human cancer cell lines, binding was tested by flow cytometry to a panel of cell lines. […] Cells were suspended at approximately 10⁵ cells/well in FACS buffer (PBS without Ca/Mg, containing 3% FCS, Biochrom). Cells were centrifuged (250 g, 5 min, 4° C.) and supernatant discarded. Cells were resuspended in dilutions of the antibodies of interest (10 μg/ml in 80 μl if not indicated otherwise) in FACS buffer, and incubated on ice for 1 h. […] After incubation for 1 h on ice cells were again washed with cold FACS buffer, resuspended in 1000 FACS buffer and analyzed by flow cytometry using a FACS-Array (BD Biosciences). Results are calculated as Geo Mean of fluorescence detected by the antibody of interest subtracted by background fluorescence as measured by detection with the secondary antibody alone. Values are scored according to the following system: Geo Mean−Geo Mean of secondary antibody alone >10: +, >100: ++, >1000: +++, 10000: ++++, close to category border in ( ).

[5] = molecular target: T4, TWEAKR (TNFRSF12A, FN14), human, on …; experiment: FACS, 786-O cells, 10 ug/ml
Procedure: as §3

[6] = molecular target: T5, TPP-2202 (TWEAKR-ECD-28-80-hIgGFc-His) (human); experiment: ELISA, TPP-2202 coated at 1 µg/ml, biotinylated IgG at 0.08 µg/ml (open bar) and 0.3 µg/ml (filled bar), Streptavidin-HRP, Amplex Red
T5 construct: dimeric; also called TWEAKR-Fc fusion protein; full ectodomain 28-80
Procedure: Detection was done with Streptavidin-HRP and Amplex-Red substrate.
To analyze for binding, 1 μg/ml of the respective dimeric TWEAKR-Fc construct were coated and, 0.3 μg/ml and 0.08 μg/ml of biotinylated IgG were used as soluble binding partner. Detection was done with Streptavidin-HRP and Amplex-Red substrate.

[7] = molecular target: T4, TWEAKR (TNFRSF12A, FN14), human, on …; experiment: cell-based or functional assay
[8] = molecular target: T4, TWEAKR (TNFRSF12A, FN14), human, on …; experiment: FACS, NCI-H322 cells, 10 ug/ml
Procedure: as §3

[9] = molecular target: T4, TWEAKR (TNFRSF12A, FN14), human, on …; experiment: FACS, SKOV-3 cells, 10 ug/ml
Procedure: as §3

[10] = molecular target: T4, TWEAKR (TNFRSF12A, FN14), human, on …; experiment: FACS, A375 cells, 10 ug/ml
Procedure: as §3

[11] = molecular target: T6, TPP-2305 (hTNFRSF12Aaa28-80) (Human, UniProt Q9NP84 28-80); experiment: SPR (Biacore T100), IgG captured, TPP-2305 injected, 1:1 model
T6 construct: monomeric extracellular domain, bought; also called purified recombinant human TWEAKR protein; soluble monomeric TWEAKR
Procedure: Binding affinities of anti-TWEAKR antibodies were determined by surface plasmon resonance analysis on a Biacore T100 instrument (GE Healthcare Biacore, Inc.). Antibodies were immobilized onto a CM5 sensor chip through an indirect capturing reagent, anti-human IgG(Fc). […] Anti-TWEAKR antibodies were injected at a concentration of 10 μg/ml at 10 μl/min for 10 sec.
Sensorgrams were generated after in-line reference cell correction followed by buffer sample subtraction. The dissociation equilibrium constant (KD) was calculated based on the ratio of association (kₒₙ) and dissociation rated (koff) constants, obtained by fitting sensorgrams with a first order 1:1 binding model.

[12] = molecular target: T4, TWEAKR (TNFRSF12A, FN14), human, on …; experiment: FACS, WiDr cells, 10 ug/ml
Procedure: as §3

[13] = molecular target: T4, TWEAKR (TNFRSF12A, FN14), human, on …; experiment: cell-based or functional assay; remark: listed apart in the source
[14] = molecular target: TPP-1988 (hTNFRSF12Aaa28-80-M50A-hIgG1-Fc) (human); experiment: ELISA, TWEAKR-Fc coated 62 ng/ml, biotin-IgG titrated; + means IC50 1 to 150 pM;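 also: biotinylated IgG binding to immobilized TWEAKR-Fc muteins, detected with Streptavidin-HRP and Amplex Red, IC50 derived from fitted dose-response curves of twofold serial dilutions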
Procedure: (§4) To collect dose-response data, the different TWEAKR-Fc muteins were coated with a low concentration (62 ng/ml) in a 384-well Maxisorb ELISA plate and a serial 2fold dilution of biotinylated IgG starting with a concentration of 100 nM was used as soluble binding partner. Detection was done with Streptavidin-HRP and Amplex Red.
(§5) The dose-response data were fitted and IC50s determined.

[15] = molecular target: TPP-2683 (hTNFRSF12Aaa28-80-R56P-hIgG1-Fc) (human); experiment: as above
Procedure: as §4, §5

[16] = molecular target: TPP-1989 (hTNFRSF12Aaa28-80-H60K-hIgG1-Fc) (human); experiment: as above
Procedure: as §4, §5

[17] = molecular target: TPP-1986 (hTNFRSF12Aaa28-80-T33Q-hIgG1-Fc) (human); experiment: as above
Procedure: as §4, §5

[18] = molecular target: TPP-1987 (hTNFRSF12Aaa28-80-S40R-hIgG1-Fc) (human); experiment: as above
Procedure: as §4, §5

[19] = molecular target: TPP-1990 (hTNFRSF12Aaa28-80-L65Q-hIgG1-Fc) (human); experiment: as above
Procedure: as §4, §5

T5 sequence (chain, as listed by the source limits assumed): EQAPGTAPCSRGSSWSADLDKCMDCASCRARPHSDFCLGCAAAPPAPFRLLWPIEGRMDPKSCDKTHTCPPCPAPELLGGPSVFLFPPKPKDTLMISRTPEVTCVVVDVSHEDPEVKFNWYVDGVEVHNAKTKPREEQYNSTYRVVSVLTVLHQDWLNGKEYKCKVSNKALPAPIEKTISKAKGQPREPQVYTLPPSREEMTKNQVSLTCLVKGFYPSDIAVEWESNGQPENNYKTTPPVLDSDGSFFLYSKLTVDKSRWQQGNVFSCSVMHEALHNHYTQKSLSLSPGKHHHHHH

Binder | GeoMean of Fluorescence minus GeoMean with the secondary antibody only [4] | GeoMean of Fluorescence minus GeoMean with the secondary antibody only [5] | binding result [6] | IL-8 release from A375 cells at 100 ug/ml, % of the activation by 300 ng/ml TWEAK ligand [7] [%] | GeoMean of Fluorescence minus GeoMean with the secondary antibody only [8] | GeoMean of Fluorescence minus GeoMean with the secondary antibody only [9] | GeoMean of Fluorescence minus GeoMean with the secondary antibody only [10] | Kd [11] [nM] | GeoMean of Fluorescence minus GeoMean with the secondary antibody only [12] | % Inhibition of proliferation, 786-O cells, 96h, 100 ug/ml [13] [%] | % Inhibition of proliferation, A253 cells, 72h, 100 ug/ml [13] [%] | % Inhibition of proliferation, HT-29 cells, 24h, 100 ug/ml [13] [%] | binding result [14] | binding result [15] | binding result [16] | binding result [17] | binding result [18] | binding result [19] | other results
TPP-2090 (antibody, human IgG1, kappa, V domains shown, Human IgG1) VH: EVQLLESGGGLVQPGGSLRLSCAASGFTFSPYPMIWVRQAPGKGLEWVSYISPSGGSTHYADSVKGRFTISRDNSKNTLYLQMNSLRAEDTAVYYCARGGDTYFDYFDYWGQGTLVTVSS VL: DIQMTQSPSSLSASVGDRVTITCRASQSISGYLNWYQQKPGKAPKLLIYQASSLQSGVPSRFSGSGSGTDFTLTISSLQPEDFATYYCQQSYTSPFITFGQGTKVEIKR | 1420 | 20300 | binds | 103 | 291 | 2870 | 561 | 12.4 | 2420 | 71 | 99 | > 100 | binds | binds | binds | binds | binds | binds | binding result [1]: no binding (tested: 75 nM); binding result [2]: no binding (tested: 75 nM); binding result [3]: no binding (tested: 75 nM)
P4A8(TPP-1324) (antibody, human IgG1, kappa, V domains shown, Human IgG1; variable domains from WO2009/140177 with constant region added) VH: QVQLVQSGAEVKKPGASVKVSCKGSGYTFTDYGMHWVRQAPGQGLEWMGVISTYNGYTNYNQKFKGRVTMTVDKSTSTAYMELRSLRSDDTAVYYCARAYYGNLYYAMDYWGQGTLVTVSS VL: DIVLTQSPASLAVSLGQRATISCRASKSVSTSSYSYMHWYQQKPGQPPKLLIKYASNLESGVPARFSGSGSGTDFSLNIHPMEEDDTAMYFCQHSRELPFTFGGGTKLEIKR | 3670 | 30200 | binds | 29 | 978 | 5970 | 1580 | 2.3 | 5920 | 29 | 37 | -10 | binds | binds | binds | binds | binds | binds | koff [11]: 0.0027 s⁻¹; kon [11]: 1.2e+06 M⁻¹ s⁻¹; % Inhibition of proliferation, WiDr cells, 96h, 100 ug/ml [13]: 4%
